{
  "source": "ChEMBL document CHEMBL4330076",
  "about": "“Quinazolin-2,4-dione-Based Hydroxamic Acids as Selective Histone Deacetylase-6 Inhibitors for Treatment of Non-Small Cell Lung Cancer” (J Med Chem, 2019)",
  "proteins": {"B1": {"name": "Protein deacetylase HDAC6 (Homo sapiens), Q9UBN7 (protein)", "chain": "MTSTGQDSTTTRQRRSRQNPQSPPQDSSVTSKRNIKKGAVPRSIPNLAEVKKKGKMKKLGQAMEEDLIVGLQGMDLNLEAEALAGTGLVLDEQLNEFHCLWDDSFPEGPERLHAIKEQLIQEGLLDRCVSFQARFAEKEELMLVHSLEYIDLMETTQYMNEGELRVLADTYDSVYLHPNSYSCACLASGSVLRLVDAVLGAEIRNGMAIIRPPGHHAQHSLMDGYCMFNHVAVAARYAQQKHRIRRVLIVDWDVHHGQGTQFTFDQDPSVLYFSIHRYEQGRFWPHLKASNWSTTGFGQGQGYTINVPWNQVGMRDADYIAAFLHVLLPVALEFQPQLVLVAAGFDALQGDPKGEMAATPAGFAQLTHLLMGLAGGKLILSLEGGYNLRALAEGVSASLHTLLGDPCPMLESPGAPCRSAQASVSCALEALEPFWEVLVRSTETVERDNMEEDNVEESEEEGPWEPPVLPILTWPVLQSRTGLVYDQNMMNHCNLWDSHHPEVPQRILRIMCRLEELGLAGRCLTLTPRPATEAELLTCHSAEYVGHLRATEKMKTRELHRESSNFDSIYICPSTFACAQLATGAACRLVEAVLSGEVLNGAAVVRPPGHHAEQDAACGFCFFNSVAVAARHAQTISGHALRILIVDWDVHHGNGTQHMFEDDPSVLYVSLHRYDHGTFFPMGDEGASSQIGRAAGTGFTVNVAWNGPRMGDADYLAAWHRLVLPIAYEFNPELVLVSAGFDAARGDPLGGCQVSPEGYAHLTHLLMGLASGRIILILEGGYNLTSISESMAACTRSLLGDPPPLLTLPRPPLSGALASITETIQVHRRYWRSLRVMKVEDREGPSSSKLVTKKAPQPAKPRLAERMTTREKKVLEAGMGKVTSASFGEESTPGQTNSETAVVALTQDQPSEAATGGATLAQTISEAAIGGAMLGQTTSEEAVGGATPDQTTSEETVGGAILDQTTSEDAVGGATLGQTTSEEAVGGATLAQTTSEAAMEGATLDQTTSEEAPGGTELIQTPLASSTDHQTPPTSPVQGTTPQISPSTLIGSLRTLELGSESQGASESQAPGEENLLGEAAGGQDMADSMLMQGSRGLTDQAIFYAVTPLPWCPHLVAVCPIPAAGLDVTQPCGDCGTIQENWVCLSCYQVYCGRYINGHMLQHHGNSGHPLVLSYIDLSAWCYYCQAYVHHQALLDVKNIAHQNKFGEDMPHPH"}},
  "key": {"[1]": {"substrate": "O=C(NO)c1ccc(Cn2c(=O)n(CCc3ccccc3)c(=O)c3ccccc32)cc1", "details": "Homo sapiens; Sf9", "description": "Competitive inhibition of human full-length recombinant HDAC6 expressed in baculovirus infected Sf9 insect cells assessed as substrate Km using Boc-Lys (Ac)-AMC as substrate preincubated for 10 mins followed by substrate addition and measured after 30 mins by fluorescence assay"}, "[2]": {"substrate": "CN1CCc2c(c3ccccc3n2Cc2ccc(C(=O)NO)cc2)C1", "details": "Homo sapiens; Sf9", "description": "(§1) Inhibition of human full-length recombinant HDAC6 expressed in baculovirus infected Sf9 insect cells assessed as substrate Km using Boc-Lys (Ac)-AMC as substrate preincubated for 10 mins followed by substrate addition and measured after 30 mins by fluorescence assay"}, "[3]": {"substrate": "COc1ccccc1CCn1c(=O)c2ccccc2n(Cc2ccc(C(=O)NO)cc2)c1=O", "details": "Homo sapiens; Sf9", "description": "as §1"}, "[4]": {"substrate": "O=C(NO)c1ccc(Cn2c(=O)n(CCc3ccccc3)c(=O)c3cccnc32)cc1", "details": "Homo sapiens; Sf9", "description": "as §1"}, "[5]": {"substrate": "O=C(NO)c1ccc(Cn2c(=O)n(CCc3ccccc3)c(=O)c3ccccc32)cc1", "details": "Homo sapiens", "description": "Competitive inhibition of human HDAC6 CD2 expressed in Escherichia coli BL21 (RIL) assessed as substrate Km using Boc-Lys (Ac)-AMC as substrate preincubated for 10 mins followed by substrate addition and measured after 30 mins by fluorescence assay"}, "[6]": {"substrate": "COc1ccccc1CCn1c(=O)c2ccccc2n(Cc2ccc(C(=O)NO)cc2)c1=O", "details": "Homo sapiens", "description": "(§2) Inhibition of human HDAC6 CD2 expressed in Escherichia coli BL21 (RIL) assessed as substrate Km using Boc-Lys (Ac)-AMC as substrate preincubated for 10 mins followed by substrate addition and measured after 30 mins by fluorescence assay"}, "[7]": {"substrate": "O=C(NO)c1ccc(Cn2c(=O)n(CCc3ccccc3)c(=O)c3cccnc32)cc1", "details": "Homo sapiens", "description": "as §2"}},
  "data": [
    {"protein": "B1", "values": [
      {"measurement": "Km", "setting": "[1]", "result": 16.7, "unit": "µM"},
      {"measurement": "Km", "setting": "[2]", "result": 29.1, "unit": "µM"},
      {"measurement": "Km", "setting": "[3]", "result": 34.6, "unit": "µM"},
      {"measurement": "Km", "setting": "[4]", "result": 21.8, "unit": "µM"},
      {"measurement": "Km", "setting": "[5]", "result": 29.8, "unit": "µM"},
      {"measurement": "Km", "setting": "[6]", "result": 32.5, "unit": "µM"},
      {"measurement": "Km", "setting": "[7]", "result": 35.3, "unit": "µM"}
    ]}
  ]
}
